# Legend:
# FGFR1 = FGFR1 (UniProt P11362); experiment: phosphorylation enrichment, bacterial display (enrichment ratio); higher = better substrate or ligand; peptides without Tyr show the background
# c-Abl (mouse) = experiment: as above
# c-Src = experiment: as above
# Hck = Hck (UniProt P08631); experiment: as above
# Jak2 = Jak2 (UniProt O60674); experiment: as above
# MERTK = MERTK (UniProt Q12866); experiment: as above
# Fes = Fes (UniProt P07332); experiment: as above
# Fyn = Fyn (UniProt P06241); experiment: as above
# FGFR3 = FGFR3 (UniProt P22607); experiment: as above
# FGFR3, sequence (P22607 whole entry, looked up): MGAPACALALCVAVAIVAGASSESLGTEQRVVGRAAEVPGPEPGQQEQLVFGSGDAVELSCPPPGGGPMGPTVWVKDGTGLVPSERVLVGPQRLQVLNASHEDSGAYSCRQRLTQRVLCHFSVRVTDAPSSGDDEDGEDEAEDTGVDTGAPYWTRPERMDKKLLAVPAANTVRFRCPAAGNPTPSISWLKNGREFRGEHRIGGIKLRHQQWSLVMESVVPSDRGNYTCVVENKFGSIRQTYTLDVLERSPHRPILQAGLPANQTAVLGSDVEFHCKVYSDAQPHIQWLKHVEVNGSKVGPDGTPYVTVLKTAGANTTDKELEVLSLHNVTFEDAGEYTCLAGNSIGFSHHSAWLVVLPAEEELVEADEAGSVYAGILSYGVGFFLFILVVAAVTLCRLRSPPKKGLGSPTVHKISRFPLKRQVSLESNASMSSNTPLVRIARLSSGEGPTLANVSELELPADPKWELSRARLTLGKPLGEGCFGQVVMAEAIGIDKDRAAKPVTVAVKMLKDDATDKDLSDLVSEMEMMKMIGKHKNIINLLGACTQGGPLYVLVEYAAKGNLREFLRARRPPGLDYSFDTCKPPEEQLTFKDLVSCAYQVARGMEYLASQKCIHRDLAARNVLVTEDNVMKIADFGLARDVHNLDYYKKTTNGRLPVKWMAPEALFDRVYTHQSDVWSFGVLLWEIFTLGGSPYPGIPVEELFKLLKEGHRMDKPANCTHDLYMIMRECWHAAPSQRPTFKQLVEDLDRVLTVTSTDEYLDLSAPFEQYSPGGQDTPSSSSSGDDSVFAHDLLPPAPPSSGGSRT
# Fer (mouse) = experiment: as above
# AncSZ = experiment: as above
# EPHB1 = EPHB1 (UniProt P54762); experiment: as above
# EPHB2 = EPHB2 (UniProt P29323); experiment: as above
# EPHB2, sequence (P29323 whole entry, looked up): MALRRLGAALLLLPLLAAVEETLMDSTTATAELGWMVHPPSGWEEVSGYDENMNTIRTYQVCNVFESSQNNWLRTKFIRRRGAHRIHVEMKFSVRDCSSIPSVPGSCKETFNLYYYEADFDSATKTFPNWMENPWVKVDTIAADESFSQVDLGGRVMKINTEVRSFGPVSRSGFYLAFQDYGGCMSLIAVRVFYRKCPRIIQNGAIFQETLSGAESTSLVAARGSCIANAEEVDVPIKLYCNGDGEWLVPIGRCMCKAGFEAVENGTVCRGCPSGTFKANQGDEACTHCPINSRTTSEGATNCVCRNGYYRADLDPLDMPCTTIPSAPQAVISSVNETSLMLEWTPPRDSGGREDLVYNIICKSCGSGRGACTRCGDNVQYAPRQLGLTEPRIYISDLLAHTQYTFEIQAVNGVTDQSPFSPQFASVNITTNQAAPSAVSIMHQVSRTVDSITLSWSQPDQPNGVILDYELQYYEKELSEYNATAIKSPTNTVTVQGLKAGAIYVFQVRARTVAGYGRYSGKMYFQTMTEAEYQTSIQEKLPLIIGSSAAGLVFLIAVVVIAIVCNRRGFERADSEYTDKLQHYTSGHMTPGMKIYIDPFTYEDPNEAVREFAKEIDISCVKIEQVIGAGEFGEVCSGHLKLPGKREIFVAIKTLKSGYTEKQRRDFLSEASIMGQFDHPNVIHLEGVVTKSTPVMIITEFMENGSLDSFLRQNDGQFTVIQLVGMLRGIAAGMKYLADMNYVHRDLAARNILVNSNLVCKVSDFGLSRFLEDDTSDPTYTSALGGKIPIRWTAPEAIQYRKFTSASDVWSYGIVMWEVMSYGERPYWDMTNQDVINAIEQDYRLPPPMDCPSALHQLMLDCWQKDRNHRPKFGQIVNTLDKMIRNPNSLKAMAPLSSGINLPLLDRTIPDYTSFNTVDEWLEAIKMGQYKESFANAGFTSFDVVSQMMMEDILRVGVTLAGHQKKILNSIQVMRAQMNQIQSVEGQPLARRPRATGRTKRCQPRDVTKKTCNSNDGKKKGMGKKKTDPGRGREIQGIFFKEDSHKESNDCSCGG
# Grb2 SH2 = Grb2 SH2 (UniProt P62993); experiment: SH2 binding enrichment of the phosphorylated peptide, bacterial display (enrichment ratio); higher = better substrate or ligand; peptides without Tyr show the background
# Grb2 SH2, sequence (P62993 whole entry, looked up): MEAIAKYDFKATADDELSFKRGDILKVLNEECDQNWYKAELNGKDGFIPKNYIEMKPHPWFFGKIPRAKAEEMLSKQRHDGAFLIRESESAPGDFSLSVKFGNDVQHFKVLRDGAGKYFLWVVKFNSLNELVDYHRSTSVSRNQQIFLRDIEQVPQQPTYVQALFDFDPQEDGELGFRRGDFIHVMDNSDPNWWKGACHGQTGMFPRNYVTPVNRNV
# SHP2-C SH2 = experiment: as above
# c-Src SH2 = experiment: as above
# 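For SH2 binding enrichment of the phosphorylated peptide, bacterial display in this document: peptide library displayed on the E. coli surface as eCPX fusions, selected cells deep-sequenced, score is each peptide's frequency after selection divided by its frequency in the input.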
# 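For phosphorylation enrichment, bacterial display in this document: 11-residue human phosphosite peptides and single-mutation variants displayed on the E. coli surface, counted by deep sequencing, each peptide's frequency after selection divided by its frequency in the unselected input library; frequency after pTyr selection over input frequency; kinase dosed for 20-30% of maximal phosphorylation in three min.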
# Hck, sequence (P08631 whole entry, looked up): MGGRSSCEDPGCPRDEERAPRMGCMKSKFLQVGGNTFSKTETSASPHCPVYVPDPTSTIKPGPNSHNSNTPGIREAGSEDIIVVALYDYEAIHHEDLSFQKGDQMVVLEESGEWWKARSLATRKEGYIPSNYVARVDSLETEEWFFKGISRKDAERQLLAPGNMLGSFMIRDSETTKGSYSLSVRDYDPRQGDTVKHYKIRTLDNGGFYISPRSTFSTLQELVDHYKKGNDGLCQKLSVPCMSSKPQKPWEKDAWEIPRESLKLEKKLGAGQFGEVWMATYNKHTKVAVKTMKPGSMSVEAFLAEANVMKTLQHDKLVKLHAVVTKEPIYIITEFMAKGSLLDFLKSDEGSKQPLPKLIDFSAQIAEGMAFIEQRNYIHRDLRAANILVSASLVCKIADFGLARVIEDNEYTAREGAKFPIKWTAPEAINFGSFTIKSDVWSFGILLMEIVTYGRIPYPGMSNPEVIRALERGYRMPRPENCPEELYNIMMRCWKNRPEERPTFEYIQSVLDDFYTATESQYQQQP
# Fes, sequence (P07332 whole entry, looked up): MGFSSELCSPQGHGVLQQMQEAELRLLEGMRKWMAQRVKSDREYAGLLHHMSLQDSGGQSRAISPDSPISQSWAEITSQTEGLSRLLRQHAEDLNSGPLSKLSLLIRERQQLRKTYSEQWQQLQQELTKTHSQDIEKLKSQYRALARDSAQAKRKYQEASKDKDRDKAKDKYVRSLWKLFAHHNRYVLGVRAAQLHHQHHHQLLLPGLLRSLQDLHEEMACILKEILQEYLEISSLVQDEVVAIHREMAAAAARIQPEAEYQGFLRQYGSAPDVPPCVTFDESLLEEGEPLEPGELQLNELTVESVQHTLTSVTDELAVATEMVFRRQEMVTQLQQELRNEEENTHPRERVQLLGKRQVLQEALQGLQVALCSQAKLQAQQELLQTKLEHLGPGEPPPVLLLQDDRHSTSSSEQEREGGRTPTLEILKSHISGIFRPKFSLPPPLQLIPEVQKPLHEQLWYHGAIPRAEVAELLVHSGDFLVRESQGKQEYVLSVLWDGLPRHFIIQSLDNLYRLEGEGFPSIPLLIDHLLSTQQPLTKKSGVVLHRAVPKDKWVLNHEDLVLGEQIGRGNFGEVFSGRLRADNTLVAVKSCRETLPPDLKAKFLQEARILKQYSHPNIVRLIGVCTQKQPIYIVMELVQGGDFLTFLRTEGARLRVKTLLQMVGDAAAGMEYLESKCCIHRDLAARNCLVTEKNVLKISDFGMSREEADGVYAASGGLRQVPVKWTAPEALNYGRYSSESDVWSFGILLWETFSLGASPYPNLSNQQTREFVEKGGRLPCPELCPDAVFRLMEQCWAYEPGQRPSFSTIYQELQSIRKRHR
# Jak2, sequence (O60674 whole entry, looked up): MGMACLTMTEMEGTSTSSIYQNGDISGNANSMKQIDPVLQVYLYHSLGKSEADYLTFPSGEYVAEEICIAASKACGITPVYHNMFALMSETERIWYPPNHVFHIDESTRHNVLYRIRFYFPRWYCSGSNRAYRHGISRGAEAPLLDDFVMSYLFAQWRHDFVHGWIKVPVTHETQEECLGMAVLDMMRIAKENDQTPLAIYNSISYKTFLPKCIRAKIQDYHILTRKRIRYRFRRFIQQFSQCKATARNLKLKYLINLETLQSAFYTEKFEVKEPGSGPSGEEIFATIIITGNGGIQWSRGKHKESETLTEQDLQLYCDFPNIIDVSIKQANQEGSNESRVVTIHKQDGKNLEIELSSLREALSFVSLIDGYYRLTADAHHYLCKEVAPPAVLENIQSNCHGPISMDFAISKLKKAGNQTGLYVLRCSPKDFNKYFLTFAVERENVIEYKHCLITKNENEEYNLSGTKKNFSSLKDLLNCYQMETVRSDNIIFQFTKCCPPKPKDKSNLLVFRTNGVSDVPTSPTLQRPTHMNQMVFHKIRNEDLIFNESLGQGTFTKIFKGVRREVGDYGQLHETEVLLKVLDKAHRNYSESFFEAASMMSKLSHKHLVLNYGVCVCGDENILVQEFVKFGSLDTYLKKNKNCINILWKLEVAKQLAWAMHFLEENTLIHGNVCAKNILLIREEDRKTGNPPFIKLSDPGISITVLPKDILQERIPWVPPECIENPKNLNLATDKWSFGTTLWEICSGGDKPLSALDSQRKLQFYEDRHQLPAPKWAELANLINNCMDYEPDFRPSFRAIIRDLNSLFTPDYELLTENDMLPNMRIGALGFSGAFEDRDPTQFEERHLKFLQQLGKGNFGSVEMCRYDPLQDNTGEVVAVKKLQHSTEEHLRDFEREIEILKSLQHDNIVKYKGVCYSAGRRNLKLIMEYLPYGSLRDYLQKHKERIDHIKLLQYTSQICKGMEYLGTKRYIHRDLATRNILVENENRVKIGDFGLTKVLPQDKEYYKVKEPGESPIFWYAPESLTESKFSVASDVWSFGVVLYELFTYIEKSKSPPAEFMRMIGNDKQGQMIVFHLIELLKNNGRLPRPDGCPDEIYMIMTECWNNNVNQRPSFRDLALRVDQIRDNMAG
Sequence,phosphorylation enrichment (FGFR1),phosphorylation enrichment (c-Abl (mouse)),phosphorylation enrichment (c-Src),phosphorylation enrichment (Hck),phosphorylation enrichment (Jak2),phosphorylation enrichment (MERTK),phosphorylation enrichment (Fes),phosphorylation enrichment (Fyn),phosphorylation enrichment (FGFR3),phosphorylation enrichment (Fer (mouse)),phosphorylation enrichment (AncSZ),phosphorylation enrichment (EPHB1),phosphorylation enrichment (EPHB2),SH2 binding enrichment (Grb2 SH2),SH2 binding enrichment (SHP2-C SH2),SH2 binding enrichment (c-Src SH2)
QRCYVYYYSYL [PTEN_Y176_R173C],2.09,1.53,3.53,1.35,4.07,2.61,2.08,1.44,2.56,1.22,1.86,1.18,1.45,0.927,0.542,0.587
QRTMKYTTATG [MCCC1_Y41],0.692,0.727,0.411,0.551,0.449,0.524,0.669,0.475,0.518,0.722,0.602,0.314,0.7,0.85,0.432,0.473
QSMEPYTKQQL [STAT3_Y640_V637M],0.51,0.445,0.401,0.696,0.736,0.579,1.02,0.462,0.692,0.546,0.851,0.454,0.66,0.887,0.851,0.499
QSSALYEDRYL [ASS1_Y83],0.56,0.61,1.2,4.44,1.01,1.1,1.12,0.997,0.74,7.79,1.15,3.12,2.45,0.711,0.493,0.653
QSSEGYGLGDR [KIAA1210_Y564],0.538,1.27,1,0.989,1.14,0.847,1.06,0.842,0.677,0.871,1.03,0.731,0.754,0.695,0.861,0.419
QYPDVYAREEV [CRX_Y67],0.959,3.34,3.8,2.18,5.06,1.8,4.98,1.66,1.66,1.93,3.78,1.57,1.82,1.05,0.812,0.49
RAADFYSQQMA [GBP6_Y334_YF],0.537,1.04,0.675,0.375,1.16,0.56,0.769,0.427,0.671,0.538,0.798,0.425,0.468,0.69,0.691,0.506
RAEAPYLLVSN [LRIG1_Y1054_Q1053P],1.72,0.556,1.79,0.564,0.748,0.456,0.775,0.654,1.18,0.699,0.655,0.4,0.36,0.847,0.645,0.695
RAHARYCADAC [ACOT4_Y52_R57C],0.436,0.889,0.41,0.45,0.61,0.437,0.677,0.344,0.395,0.518,0.601,0.402,0.499,0.915,0.898,0.872
RAILNYIASKY [GSTA3_Y74],0.652,0.92,0.81,0.594,0.942,0.466,1.59,0.719,0.89,0.748,1.44,0.665,0.795,1.19,0.747,1.17
RASDYYSQQMA [GBP6_Y334_A331S],2.42,0.458,0.41,0.611,0.571,0.581,0.744,0.422,1.89,0.402,0.891,0.966,0.585,0.887,0.651,0.521
RAVLLYEYVGK [NATD1_Y45],3.61,1.24,5.21,10.4,0.857,11.4,4.82,6.98,3.99,19.4,3.07,28.2,35.4,1.19,1.11,1.02
RDMMDYMLQGV [CYP21A2_Y259],0.73,0.962,1.09,0.581,1.63,0.488,1.19,0.673,0.869,0.612,1.2,1.34,0.827,0.812,0.997,0.531
REAMEYLESKQ [BTK_Y511_C506R],0.754,1.15,0.701,0.505,1.09,0.501,1.15,0.703,0.794,0.704,1.62,0.657,0.573,0.706,0.678,0.491
REGAKYVSHCA [ASS1_Y113_G117C],0.643,0.825,0.516,0.489,0.652,0.504,0.86,0.822,0.445,0.633,0.776,0.618,0.506,1.04,0.723,0.676
REGAKYVSHGA [ASS1_Y113],0.385,0.339,0.275,0.399,0.47,0.403,0.628,0.378,0.501,0.566,0.5,0.553,0.4,0.602,0.322,0.415
RELGEYGLQAF [ALDH2_Y497_YF],0.653,0.951,0.704,0.772,0.724,1.87,1.66,0.775,0.793,0.816,1.07,0.707,1.07,1.15,1.04,0.758
